Assay [1] concerns the target T1, wild-type human PTHR (human, UniProt Q03431 27-593).
T1 construct: whole, on cells; also called PTHR-WT; intact PTHR
T1 sequence (looked up): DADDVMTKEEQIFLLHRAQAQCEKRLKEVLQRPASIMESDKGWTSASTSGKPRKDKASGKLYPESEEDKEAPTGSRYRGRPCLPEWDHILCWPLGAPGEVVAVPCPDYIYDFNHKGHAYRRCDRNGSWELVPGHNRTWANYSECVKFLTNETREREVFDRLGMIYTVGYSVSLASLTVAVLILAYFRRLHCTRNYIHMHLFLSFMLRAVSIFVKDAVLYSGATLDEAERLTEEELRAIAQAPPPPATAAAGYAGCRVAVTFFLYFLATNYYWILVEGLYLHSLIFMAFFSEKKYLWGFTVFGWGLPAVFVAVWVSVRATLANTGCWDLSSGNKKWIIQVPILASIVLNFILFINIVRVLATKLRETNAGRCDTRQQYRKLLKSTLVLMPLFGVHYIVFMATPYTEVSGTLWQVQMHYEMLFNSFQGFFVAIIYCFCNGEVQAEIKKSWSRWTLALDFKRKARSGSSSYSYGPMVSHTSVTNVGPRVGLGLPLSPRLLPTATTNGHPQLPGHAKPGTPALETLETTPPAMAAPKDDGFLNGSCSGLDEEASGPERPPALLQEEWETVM
Nature of the assay: competition binding, HKRK-B7 cells, 125I-PTH(1-34) tracer.

Assay [2] deals with T1, wild-type human PTHR. The assay is described as above. On the procedure: Receptor binding—Binding to the wild-type human PTHR in intact HKRK-B7 cells and ROS 17/2.8 cells was assessed using ¹²⁵I-PTH(1-34) as a tracer radioligand, as described (Shimizu, M., (2001) Endocrinology 142:3068-3074). In brief, the cells in 24-well plates (about 500,000 cells per well) were incubated in binding buffer containing radioligand (about 100,000 cpm per well) with or without unlabeled peptide ligand (3×10⁻⁹ to 1×10⁻⁵ M) for four hours at 15° C. The binding mixture was then removed by aspiration, the cells were rinsed three times with binding buffer, lysed in 1 M NaOH, and the entire lysate was counted for gamma-irradiation in a gamma counter. Binding to PTHR-delNt in COS-7 cell membranes was assessed in 96-well, vacuum filtration plates (Multiscreen-Durapore HV, […], Millipore Corp., Millford, Mass.) using ¹²⁵I-[Aib^{1,3},M]PTH(1-15)NH₂ as a tracer radioligand, as described (Dean, T., (2006) Mol Endocrinol 20:931-942). In brief, cell membranes (20 μg/well) were incubated in membrane binding buffer containing radioligand (30,000 cpm/well) with or without unlabeled peptide ligand (3×10⁻⁹ to 1×10⁻⁵ M) for 90 minutes at 21° C. The plates were then subject to rapid vacuum filtration, the filters were washed once with buffer, detached from the plate and counted for gamma-irradiation in a gamma counter. Non-specific binding was defined as the binding observed in the presence of 1×10⁻⁶ M PTH(1-31)NH₂ for HKRK-B7 and ROS 17/2.8 cells, and 1×10⁻⁶ M [Aib^{1,3},M]PTH(1-15)NH₂ for PTHR-delNt. Specifically bound radioactivity was calculated as a percentage of the radioactivity specifically bound in the absence of competing ligand.
Cyclohexylalanine and glutamate substitutions were introduced into [Ala¹,Arg¹⁹]hPTH(1-31)NH₂. The helical residue values were calculated from [θ]₂₂₂, the mean-residue elipticities observed in the CD spectra at 222 nm. Competition binding studies were performed in intact HKRK-B7 cells stably transfected with the hPTHR using ¹²⁵I-[Nle^{8,21},Tyr³⁴]rPTH(1-34)NH ₂ tracer radioligand, and in membranes prepared from COS-7 cells transiently transfected with hPTHR-delNt and a negative-dominant Gαs using ¹²⁵I-[Aib^{1,3},Nle⁸,Gln¹⁰,Har¹¹,Ala¹²,Trp¹⁴,Tyr¹⁵]rPTH(1-15)NH₂ tracer radioligand. Binding values (nM) are means (+/−s.e.m.) of data from the number of experiments indicated (n).
The source holds these as a separate data set.

Assay [3] deals with PTHR-delNt (human) (UniProt Q03431). Nature of the assay: competition binding, COS-7 membranes, 125I-[Aib1,3,M]PTH(1-15) tracer.

Where no end group is shown, it is not given here. [ ]: non-standard residue; d: D form. Cha = N[C@@H](CC1CCCCC1)C(=O)O

B1: [Ala^1,Arg^19]hPTH(1-31)NH2 Leu^28→Cha (peptide)
peptide: AVSEIQLMHNLGKHLNSMRRVEWLRKK[Cha]QDV-NH2
modifications: N-terminus assumed
SMILES: CC[C@H](C)[C@H](NC(=O)[C@H](CCC(=O)O)NC(=O)[C@H](CO)NC(=O)[C@@H](NC(=O)[C@H](C)N)C(C)C)C(=O)N[C@@H](CCC(N)=O)C(=O)N[C@@H](CC(C)C)C(=O)N[C@@H](CCSC)C(=O)N[C@@H](Cc1c[nH]cn1)C(=O)N[C@@H](CC(N)=O)C(=O)N[C@@H](CC(C)C)C(=O)NCC(=O)N[C@@H](CCCCN)C(=O)N[C@@H](Cc1c[nH]cn1)C(=O)N[C@@H](CC(C)C)C(=O)N[C@@H](CC(N)=O)C(=O)N[C@@H](CO)C(=O)N[C@@H](CCSC)C(=O)N[C@@H](CCCNC(=N)N)C(=O)N[C@@H](CCCNC(=N)N)C(=O)N[C@H](C(=O)N[C@@H](CCC(=O)O)C(=O)N[C@@H](Cc1c[nH]c2ccccc12)C(=O)N[C@@H](CC(C)C)C(=O)N[C@@H](CCCNC(=N)N)C(=O)N[C@@H](CCCCN)C(=O)N[C@@H](CCCCN)C(=O)N[C@@H](CC1CCCCC1)C(=O)N[C@@H](CCC(N)=O)C(=O)N[C@@H](CC(=O)O)C(=O)N[C@H](C(N)=O)C(C)C)C(C)C
The term IC50 denotes the concentration that gives 50% inhibition. High values mean weaker potency in that assay, low ones greater potency in that assay. On to B1, for which the “fold change in binding affinity vs [Ala^1,Arg^19]PTH(1-31)NH2” value (“fold change in binding affinity” below) in assay [1] is not above 6 fold; in assay [3] it was less than 3 fold. Further, the IC50 in assay [2] amounted to 65 nM; in assay [3], 226 nM.

B2: [Ala^1,Arg^19]hPTH(1-31)NH2 Glu^22→Cha (peptide)
peptide: AVSEIQLMHNLGKHLNSMRRV[Cha]WLRKKLQDV-NH2
modifications: N-terminus assumed
SMILES: CC[C@H](C)[C@H](NC(=O)[C@H](CCC(=O)O)NC(=O)[C@H](CO)NC(=O)[C@@H](NC(=O)[C@H](C)N)C(C)C)C(=O)N[C@@H](CCC(N)=O)C(=O)N[C@@H](CC(C)C)C(=O)N[C@@H](CCSC)C(=O)N[C@@H](Cc1c[nH]cn1)C(=O)N[C@@H](CC(N)=O)C(=O)N[C@@H](CC(C)C)C(=O)NCC(=O)N[C@@H](CCCCN)C(=O)N[C@@H](Cc1c[nH]cn1)C(=O)N[C@@H](CC(C)C)C(=O)N[C@@H](CC(N)=O)C(=O)N[C@@H](CO)C(=O)N[C@@H](CCSC)C(=O)N[C@@H](CCCNC(=N)N)C(=O)N[C@@H](CCCNC(=N)N)C(=O)N[C@H](C(=O)N[C@@H](CC1CCCCC1)C(=O)N[C@@H](Cc1c[nH]c2ccccc12)C(=O)N[C@@H](CC(C)C)C(=O)N[C@@H](CCCNC(=N)N)C(=O)N[C@@H](CCCCN)C(=O)N[C@@H](CCCCN)C(=O)N[C@@H](CC(C)C)C(=O)N[C@@H](CCC(N)=O)C(=O)N[C@@H](CC(=O)O)C(=O)N[C@H](C(N)=O)C(C)C)C(C)C
Regarding B2, the “fold change in binding affinity” value in assay [1] is not above 6 fold; in assay [3] it was less than 3 fold. Further, the IC50 in assay [2] turned out to be 75 nM; in assay [3], 126 nM.

B3: [Ala^1,Arg^19]hPTH(1-31)NH2 Gln^29→Cha (peptide)
peptide: AVSEIQLMHNLGKHLNSMRRVEWLRKKL[Cha]DV-NH2
modifications: N-terminus assumed
SMILES: CC[C@H](C)[C@H](NC(=O)[C@H](CCC(=O)O)NC(=O)[C@H](CO)NC(=O)[C@@H](NC(=O)[C@H](C)N)C(C)C)C(=O)N[C@@H](CCC(N)=O)C(=O)N[C@@H](CC(C)C)C(=O)N[C@@H](CCSC)C(=O)N[C@@H](Cc1c[nH]cn1)C(=O)N[C@@H](CC(N)=O)C(=O)N[C@@H](CC(C)C)C(=O)NCC(=O)N[C@@H](CCCCN)C(=O)N[C@@H](Cc1c[nH]cn1)C(=O)N[C@@H](CC(C)C)C(=O)N[C@@H](CC(N)=O)C(=O)N[C@@H](CO)C(=O)N[C@@H](CCSC)C(=O)N[C@@H](CCCNC(=N)N)C(=O)N[C@@H](CCCNC(=N)N)C(=O)N[C@H](C(=O)N[C@@H](CCC(=O)O)C(=O)N[C@@H](Cc1c[nH]c2ccccc12)C(=O)N[C@@H](CC(C)C)C(=O)N[C@@H](CCCNC(=N)N)C(=O)N[C@@H](CCCCN)C(=O)N[C@@H](CCCCN)C(=O)N[C@@H](CC(C)C)C(=O)N[C@@H](CC1CCCCC1)C(=O)N[C@@H](CC(=O)O)C(=O)N[C@H](C(N)=O)C(C)C)C(C)C
On to B3, for which the “fold change in binding affinity” value was not above 6 fold in assay [1] and less than 3 fold in assay [3]. Also, the values for the IC50 in assay [2] and in assay [3] were 61 nM and 319 nM, respectively.

B4: [Ala^1,Arg^19]hPTH(1-31)NH2 Lys^27→Cha (peptide)
peptide: AVSEIQLMHNLGKHLNSMRRVEWLRK[Cha]LQDV-NH2
modifications: N-terminus assumed
SMILES: CC[C@H](C)[C@H](NC(=O)[C@H](CCC(=O)O)NC(=O)[C@H](CO)NC(=O)[C@@H](NC(=O)[C@H](C)N)C(C)C)C(=O)N[C@@H](CCC(N)=O)C(=O)N[C@@H](CC(C)C)C(=O)N[C@@H](CCSC)C(=O)N[C@@H](Cc1c[nH]cn1)C(=O)N[C@@H](CC(N)=O)C(=O)N[C@@H](CC(C)C)C(=O)NCC(=O)N[C@@H](CCCCN)C(=O)N[C@@H](Cc1c[nH]cn1)C(=O)N[C@@H](CC(C)C)C(=O)N[C@@H](CC(N)=O)C(=O)N[C@@H](CO)C(=O)N[C@@H](CCSC)C(=O)N[C@@H](CCCNC(=N)N)C(=O)N[C@@H](CCCNC(=N)N)C(=O)N[C@H](C(=O)N[C@@H](CCC(=O)O)C(=O)N[C@@H](Cc1c[nH]c2ccccc12)C(=O)N[C@@H](CC(C)C)C(=O)N[C@@H](CCCNC(=N)N)C(=O)N[C@@H](CCCCN)C(=O)N[C@@H](CC1CCCCC1)C(=O)N[C@@H](CC(C)C)C(=O)N[C@@H](CCC(N)=O)C(=O)N[C@@H](CC(=O)O)C(=O)N[C@H](C(N)=O)C(C)C)C(C)C
notes: also called Cha^27 analog
For the molecule B4, the entries for the “fold change in binding affinity” value in assay [1] and in assay [3] were not above 6 fold and less than 3 fold, respectively. The IC50 in assay [2] came to 91 nM; in assay [3] it was 629 nM.

B5: [Ala^1,Arg^19]hPTH(1-31)NH2 Val^21→Cha (peptide)
peptide: AVSEIQLMHNLGKHLNSMRR[Cha]EWLRKKLQDV-NH2
modifications: N-terminus assumed
SMILES: CC[C@H](C)[C@H](NC(=O)[C@H](CCC(=O)O)NC(=O)[C@H](CO)NC(=O)[C@@H](NC(=O)[C@H](C)N)C(C)C)C(=O)N[C@@H](CCC(N)=O)C(=O)N[C@@H](CC(C)C)C(=O)N[C@@H](CCSC)C(=O)N[C@@H](Cc1c[nH]cn1)C(=O)N[C@@H](CC(N)=O)C(=O)N[C@@H](CC(C)C)C(=O)NCC(=O)N[C@@H](CCCCN)C(=O)N[C@@H](Cc1c[nH]cn1)C(=O)N[C@@H](CC(C)C)C(=O)N[C@@H](CC(N)=O)C(=O)N[C@@H](CO)C(=O)N[C@@H](CCSC)C(=O)N[C@@H](CCCNC(=N)N)C(=O)N[C@@H](CCCNC(=N)N)C(=O)N[C@@H](CC1CCCCC1)C(=O)N[C@@H](CCC(=O)O)C(=O)N[C@@H](Cc1c[nH]c2ccccc12)C(=O)N[C@@H](CC(C)C)C(=O)N[C@@H](CCCNC(=N)N)C(=O)N[C@@H](CCCCN)C(=O)N[C@@H](CCCCN)C(=O)N[C@@H](CC(C)C)C(=O)N[C@@H](CCC(N)=O)C(=O)N[C@@H](CC(=O)O)C(=O)N[C@H](C(N)=O)C(C)C
As for B5, the results for the “fold change in binding affinity” value in assay [1] and in assay [3] were not above 6 fold and less than 3 fold, respectively. For the same molecule, the results for the IC50 in assay [2] and in assay [3] were 74 nM and 564 nM, respectively.

The record behind these values is patent publication US20100081612A1 (GENERAL HOSPITAL, published 2010).
